In assay [1] the target is T1, RSV Pre-F protein (pre-fusion conformation of the F protein of RSV A2 strain) (RSV A2 strain, UniProt P03420 26-513).
T1 construct: Recombinant trimeric protein; also called pre-fusion F protein; antigen Pre-F protein
Nature of the assay: ELISA, RSV Pre-F coated on the plate, TRN1021 in 3-fold dilutions, anti-human IgG-HRP, OD450.

Assay [2] has as its target T1, RSV Pre-F protein (pre-fusion …). Nature of the assay: SPR (Biacore X100), TRN1021 captured on anti-human IgG (Fc), Pre-F as analyte at 2.5-40 µg/mL.

T1 sequence (P03420 26-513): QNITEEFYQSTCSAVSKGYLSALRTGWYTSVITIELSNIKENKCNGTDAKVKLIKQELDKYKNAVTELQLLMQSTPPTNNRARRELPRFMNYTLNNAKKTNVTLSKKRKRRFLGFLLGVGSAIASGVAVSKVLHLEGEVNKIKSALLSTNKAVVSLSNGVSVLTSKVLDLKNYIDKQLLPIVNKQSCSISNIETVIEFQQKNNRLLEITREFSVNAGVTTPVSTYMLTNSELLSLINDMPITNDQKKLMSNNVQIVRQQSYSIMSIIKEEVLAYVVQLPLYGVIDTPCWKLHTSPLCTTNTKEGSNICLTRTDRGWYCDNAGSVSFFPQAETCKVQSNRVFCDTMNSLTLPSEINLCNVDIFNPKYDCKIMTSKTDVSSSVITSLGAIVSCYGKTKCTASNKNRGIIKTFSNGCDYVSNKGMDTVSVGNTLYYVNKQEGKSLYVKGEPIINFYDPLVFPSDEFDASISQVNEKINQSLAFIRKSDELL

B1: fully human anti-RSV monoclonal antibody TRN1021 (antibody, V domains shown)
VH: QVQLVQSGAEVKKPGESLKISCQGSGYSFNNYYIGWVRQMPGKGLEWMVIIYPGDSDTKYSPSFQGQVTVSADRSINTAYLQWSSLRASDTAVYYCVRMDTVTTGAGVGFNWFFDLWGRGTLVTVSS
VL: EIVLTQSPATLSVSPGERATLSCRASQSVTSYLAWYQQKPGQAPRLLIYGASSRATGVPARFSGSGSETEFTLTISSLQSEDFAVYYCQQYNDWPAITFGQGTRLENK
notes: It was expressed in HEK293 cells as a whole human antibody, purified on Protein A, detected with anti-human IgG and captured through anti-human IgG (Fc); also called fully human anti-RSV-F protein monoclonal antibody TRN1021
With B1, in assay [1], the “EC50 (read off the curve)” value is around 8 ng/mL. The molecule also yielded a Kd in assay [2] of around 1 nM.

(Values after patent US20240059763A1 (ZHUHAI TRINOMAB PHARMACEUTICAL, published 2024).)
